Experimental data reported in patent publication US20200216824A1, “REGULATING PROTEIN SPONTANEOUS RUPTURES” (Bowling Green State University, priority 2019, published 2020).
“Also recorded” adds a separate entry of the source.

Key:
[1] = target: calmodulin (CaM) (Homo sapiens, UniProt P0DP23); experiment: Effect of Ca2+ / EGTA on CaM rupture under AFM compressive force; settings: 1 mM CaCl2 for Ca2+; 2 mM EGTA buffer treatment
Method: (§1) In the experiment of compressive force manipulation on both Apo- and Ca^2+-ligated CaM, a modified AFM apparatus with an ultra-soft AFM tip was used to apply compressive force on a single protein molecule tethered to a glass coverslip through covalent bonding between the linker molecule and amino group of the protein, and its response was studied.
The same experiment was carried out on Ca^2+-ligated CaM. FIG. 14B represents the typical AFM compressive force curve on a Ca^2+-ligated single CaM molecule. […] Nevertheless, repeated rupture events on a single protein molecule have been noticed when a repeated force manipulation experiment on the same protein molecule has been carried out.
FIG. 29 illustrates the scheme of tethering single protein molecules on a cover glass surface. The cover glass (Gold Seal) was first cleaned and silanized with a mixture of (3-aminopropyl) trimethoxysilane, isobutyltrimethoxysilane with a ratio of 1:1000 dissolved in DMSO (10% v/v) for 12 hours, and then incubated in 10 nM dimethyl suberimidate in 50 mM PBS (pH 8.0) for 4 h. After washing with water and methanol, the glass slide was incubated in 10 nM CaM solutions (PBS, pH 7.4) for 4 h. […]
Typical compressive force curves were recorded under different conditions. […]

[2] = target: tau protein (Homo sapiens, UniProt P10636); experiment: Effect of cations on tau protein rupture under AFM compressive force; settings: buffer solution pH 7.4
Text: This gives the indication of the presence of two forms of tau protein under different ionic environment. Under K^+environment tau protein exists as a relatively rigid protein structure which is more prone to collapse under compressive force build up. […] In addition, it was also investigated whether this kind of spontaneous and simultaneous rupture of multiple proteins under close proximity can develop an entangled protein third state, a fusion state, and can be a plausible mechanism for protein aggregation.
The protein molecules were tethered to the cover glass through covalent bonding between the amine group of the protein and the linker molecule attached to the coverglass surface. All the force curves were recorded under buffer solution (pH 7.4). When the AFM tip apex touches the surface of the protein molecule it starts loading force on it, once the force reaches a threshold value it can no longer withhold the force and collapses (FIG. 16A). This kind of behavior exists in globular proteins such as HPPK, calmodulin, and others.
Without wishing to be bound by theory, it is believed that there is a comprehensive model for two types of protein structure responses under compressive forces (FIG. 18C, green curve). One is a balloon-like type, reflected by the stress-strain curve in FIG. 18C, which is more rigid in nature and show rupture under compressive force. […]

[3] = AFM compressive force rupture of single CaM molecules (CaM, Apo-CaM, Ca2+-ligated CaM); format: physicochemical
Method: The mean rupture force from the distributions are 25 pN and 47 pN for CaM and HPPK molecules, respectively. ΔG was also calculated for CaM rupture, which is about 25.6±7.3 kBT using Bell-Evans Model. The characteristic behavior is due to different structural rigidity and a different vector orientation of the mechanical force inside different protein molecules.
The experiments for CaM protein were repeated under five different ALRs. FIGS. 11A-11E show the statistical distribution of the threshold force at five different ALRs and characterization of CaM rupture force and loading energy. FIGS. 11A-11E show the rupture threshold force distribution in different loading velocities. […] Loading velocity is 100 nm/s. The threshold force required for a single CaM protein molecule to rupture increases from 12 pN to 35 pN as the approaching velocity increases from 50 nm/s to 1000 nm/s, and the threshold force increases linearly along with the log of ALR (FIG. 8D).
as §1
From this distribution, the rupture force was calculated to be around 70 pN. This rupture force is dependent on the AFM tip approaching velocity. To calculate the actual threshold force loading distance, i.e., the amount of structural change of the targeted Apo-CaM molecule under the process of compressive force loading to the threshold value, the force curves were analyzed considering two factors. First, the force loading process causes the tip bending. Because of that, the distance traveled by the electropiezo scanner exceeds the distance traveled by the AFM tip apex. The amount of tip bending in the process of force loading can be easily taken in account considering the force constant of the cantilever (30 pN/nm). Second, the contribution of the hydration shell around a protein molecule (1-2 nm of width) was considered. Therefore, in the recorded force curves, force increases in a much slower rate at the beginning which corresponds to the AFM tip interaction with the outer solvation layer of the protein. In the latter part of the force curve, the force increases in a much faster manner as the AFM tip starts to interact with the protein surface directly. Without wishing to be bound by theory, it is believed that the contact occurs when the compressive force loaded by the AFM tip reaches a certain value to counter the water solvation layer. […]
It is the distance between the point where force loading starts and the point where protein rupture occurs. […] The loading energy was calculated using Eloading=∫F(l)dl, where l is the compressive force loading distance, and F(l) is the loading force. […] Under this approximation, distribution of the calculated threshold compressive force loading energy was plotted in FIG. 15D using Eloading=(F threshold/2)×lthreshold and the mean value was around 32 kBT; however, the energy can be as low as 10 kBT with significant probability, which is biologically accessible from the local thermal fluctuations, such as in living mammalian cells at 37° C.
The loading energy was calculated using Eloading=J F(l)dl. l is the compressive force loading distance, and F(l) is the loading force curve. […]

[4] = AFM-FRET compressive force rupture of single HPPK molecules; format: physicochemical
Text: 6-hydroxymethyl-7,8-dihydropterin pyrophosphokinase (HPPK) is a 158-residue monomer kinase enzyme protein which acts as a catalyst in the pyrophosphorylation reaction that drives the conversion of 6-hydroxymethyl-7,8-dihydropterin (HP) to 6-hydroxymethyl-7,8-dihydropterin pyrophosphate (HPPP) in the presence of ATP leading to the biosynthesis of folate cofactors. AFM was used to apply the compressive force on single protein molecules that are tethered on the glass cover slip surface at a controlled low density for single-molecule measurements. The enzyme HPPK was labeled with Cy3/Cy5 donor acceptor FRET pair on the amino acid residues 88 and 142, respectively (FIG. 2A), for probing the conformational changes of single protein under the compressive force.
The structural rupture of a single HPPK protein under compressive force applied by AFM tip was evaluated. […] When the AFM tip touches a single protein molecule, a compressive force is applied on the targeted protein, the force monotonically increases up to the level of about 60 pN (FIG. 1E), and then the force drops to zero abruptly.
As the piezo continues to approach toward the surface, the compressive force on the protein molecule increases; simultaneously, the protein starts to deform. When the force reaches a threshold value, the protein molecule suddenly ruptures, and the force on the tip releases to zero. As the AFM piezo continues to approach the glass coverslip surface, the tip on glass cannot move anymore, and as a result, piezo displacement causes tip bending. Therefore, from top to bottom, the cantilever bending distance=the piezo displacement D (nm); and the direct AFM instrumental electronic signal was measured and recorded for the loading force, F (mV). If the cantilever force constant k (pN/nm) is known, then, from the reading of measured f (mV), the protein rupture threshold force (pN)=[…] can be calculated.
To evaluate the relation between the compressive threshold force and the tip approaching velocity, the experiment was repeated under different approaching velocities (FIGS. 8-9). The threshold force for a single protein HPPK rupture increases as the apparent loading rate (ALR) by the AFM tip increases (FIG. 8B). ALR equals the approaching velocity times the force constant of AFM cantilever.
A two-state theoretical model, the Bell-Evans theory (eqn. 3), was used to analyze the linear dependence of rupture force with the logarithm of loading rate (FIG. 8B):
where F(r) is the most probable rupture force; kB, the Boltzmann's constant; T, temperature in Kelvin; Xβ is the distance between the bonded state and the transition state where the activation barrier is located; r, the loading rate; and ko the off-rate constant at zero force. The fitting gives two model parameters, kinetic off rate constant ko=12.2±4.5 s^−1 and the distance from the bound to transition state, Xβ=0.34±0.05 nm. Using ko, the barrier height of the transition state (ΔG) was also calculated using the following equation (eqn. 4), where h is the Planck's constant. ΔG of HPPK protein rupture is 27.0±9.8 kBT.
The cover glass (Gold Seal) was first cleaned and silanized with a mixture of (3-aminopropyl) trimethoxysilane and isobutyltrimethoxysilane with a ratio of 1:10000 dissolved in DMSO (10% v/v) for 12 hours, and then incubated in 10 nM dimethyl suberimidate in 50 mM PBS (pH 8.0) for 4 h. After washing by water and methanol, the glass slide was incubated in 10 nM HPPK solutions (PBS, pH 7.4) for 4 h. The possibility of two protein molecules locating underneath the AFM tip or in the same laser focus spot of around 300 nm diameters is almost zero. Cy3-Cy5 labeled HPPK molecules were tethered randomly on a cover glass surface and then incubated in PBS buffer (pH=7.4) in a homemade chamber immobilized on top of the microscope. To decrease photobleaching, added 0.8% D-glucose, 1 mg/mL glucose oxidase, 0.04 mg/mL catalase, and about 1 mM Trolox were added in the buffer as an oxygen scavenger. […]

tau protein, sequence (P10636 1-441 isoform P10636-8): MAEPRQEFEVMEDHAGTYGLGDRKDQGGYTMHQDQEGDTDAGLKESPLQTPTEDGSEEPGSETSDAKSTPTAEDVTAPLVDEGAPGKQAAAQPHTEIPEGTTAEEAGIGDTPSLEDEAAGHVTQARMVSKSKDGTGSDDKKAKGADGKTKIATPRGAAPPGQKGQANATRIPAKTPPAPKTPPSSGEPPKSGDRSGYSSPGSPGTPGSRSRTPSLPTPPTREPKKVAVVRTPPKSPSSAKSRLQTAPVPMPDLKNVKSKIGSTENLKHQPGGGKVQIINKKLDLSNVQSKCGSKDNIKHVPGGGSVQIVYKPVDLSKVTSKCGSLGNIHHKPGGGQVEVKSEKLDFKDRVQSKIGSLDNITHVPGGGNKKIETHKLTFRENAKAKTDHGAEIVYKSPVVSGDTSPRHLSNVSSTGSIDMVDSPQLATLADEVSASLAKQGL

[Ca+2] [Ca^2+]
rupture event of CaM under compressive force in presence of / after treatment with the substance [1]: does not go through a structural rupture; also recorded: No force drop was recorded

O=C(O)CN(CCOCCOCCN(CC(=O)O)CC(=O)O)CC(=O)O [EGTA, reference compound]
rupture event of CaM under compressive force in presence of / after treatment with the substance [1]: the rupture event recovers

[K+] [K^+, reference compound]
rupture event of tau protein under compressive force in presence of the cation [2]: the rupture event remains

[Mg+2] [Mg^2+]
rupture event of tau protein under compressive force in presence of the cation [2]: does not show such rupture events; also recorded: no rupture event was found; also recorded: No rupture event was observed

calmodulin [CaM]
rupture threshold force ([3]; 50 nm/s approaching velocity): 12 pN
loading energy ([3]; 100 nm/s loading velocity): 4-8 kBT
mean rupture force ([3]; 200 nm/s loading velocity): 25 pN
rupture threshold force ([3]; 1000 nm/s approaching velocity): 35 pN
ΔG of rupture ([3]; Bell-Evans Model): about 25.6±7.3 kBT

B1: 6-hydroxymethyl-7,8-dihydropterin pyrophosphokinase (protein, UniProt P26281 2-159, looked up)
2-amino-4-hydroxy-6-hydroxymet …: TVAYIAIGSNLASPLEQVNAALKALGDIPESHILTVSSFYRTPPLGPQDQPDYLNAAVALETSLAPEELLNHTQRIELQQGRVRKAERWGPRTLDLDIMLFGNEVINTERLTVPHYDMKNRGFMLWPLFEIAPELVFPDGEMLRQILHTRAFDKLNKW
notes: 158-residue monomer kinase enzyme protein
rupture threshold force (mean) ([4]; 200 nm/s approaching/loading velocity): 47 pN
threshold compressive force loading energy ([4]; 200 nm/s loading velocity): around 30 kBT
rupture threshold force ([4]; 2000 nm/s approaching velocity): 75 pN
distance from the bound to transition state Xβ ([4]; Bell-Evans fit): 0.34±0.05 nm
kinetic off rate constant ko ([4]; Bell-Evans fit of rupture force vs loading rate): 12.2 ± 4.5 s⁻¹
AFM piezoelectric displacement from start of force loading to rupture ([4]; average, FIG. 10C): 5.0˜6.0 nm
barrier height of the transition state ΔG of protein rupture ([4]; calculated from ko): 27.0±9.8 kBT
compressive force level reached before abrupt drop ([4]; single force curve, FIG. 1E): about 60 pN
